No end group written: not given here.
What was measured:
Test in all cases: Kinase Profiling Assay
Format in all cases: biochemical
Details in all cases: peptide 100 μM
DAPK2(h) = DAPK2(h) (Homo sapiens, UniProt Q9UIK4)
Procedure, shortened: (§1)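 Kinase inhibition by MK2 inhibitory peptides was profiled radiometrically, with substrate phosphorylation from labeled ATP read by scintillation after capture on a charged filter. Values are relative to 100% activity and measured in duplicate.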

DMPK(h) = target: T1, DMPK(h) (Homo sapiens, UniProt Q09013)
T1 sequence (Q09013 1-629): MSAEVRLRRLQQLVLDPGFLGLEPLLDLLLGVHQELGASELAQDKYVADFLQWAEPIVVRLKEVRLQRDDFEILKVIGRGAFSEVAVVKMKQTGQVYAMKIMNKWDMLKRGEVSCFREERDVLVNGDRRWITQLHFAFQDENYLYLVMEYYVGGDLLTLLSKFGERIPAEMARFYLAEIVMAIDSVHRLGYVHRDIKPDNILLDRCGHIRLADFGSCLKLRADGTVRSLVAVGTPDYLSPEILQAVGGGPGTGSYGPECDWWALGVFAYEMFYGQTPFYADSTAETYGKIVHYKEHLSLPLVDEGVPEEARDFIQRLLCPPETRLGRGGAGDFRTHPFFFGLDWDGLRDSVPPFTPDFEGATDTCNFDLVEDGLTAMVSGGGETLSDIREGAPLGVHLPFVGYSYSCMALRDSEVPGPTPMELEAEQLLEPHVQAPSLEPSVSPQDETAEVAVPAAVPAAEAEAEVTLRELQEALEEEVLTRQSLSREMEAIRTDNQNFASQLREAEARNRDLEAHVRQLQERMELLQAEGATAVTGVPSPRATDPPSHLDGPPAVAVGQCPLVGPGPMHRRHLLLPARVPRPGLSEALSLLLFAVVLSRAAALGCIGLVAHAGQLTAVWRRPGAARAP
Procedure, shortened: as §1

EphB4(h) = target: T2, EphB4(h) (Homo sapiens, UniProt P54760)
T2 sequence (P54760 16-987): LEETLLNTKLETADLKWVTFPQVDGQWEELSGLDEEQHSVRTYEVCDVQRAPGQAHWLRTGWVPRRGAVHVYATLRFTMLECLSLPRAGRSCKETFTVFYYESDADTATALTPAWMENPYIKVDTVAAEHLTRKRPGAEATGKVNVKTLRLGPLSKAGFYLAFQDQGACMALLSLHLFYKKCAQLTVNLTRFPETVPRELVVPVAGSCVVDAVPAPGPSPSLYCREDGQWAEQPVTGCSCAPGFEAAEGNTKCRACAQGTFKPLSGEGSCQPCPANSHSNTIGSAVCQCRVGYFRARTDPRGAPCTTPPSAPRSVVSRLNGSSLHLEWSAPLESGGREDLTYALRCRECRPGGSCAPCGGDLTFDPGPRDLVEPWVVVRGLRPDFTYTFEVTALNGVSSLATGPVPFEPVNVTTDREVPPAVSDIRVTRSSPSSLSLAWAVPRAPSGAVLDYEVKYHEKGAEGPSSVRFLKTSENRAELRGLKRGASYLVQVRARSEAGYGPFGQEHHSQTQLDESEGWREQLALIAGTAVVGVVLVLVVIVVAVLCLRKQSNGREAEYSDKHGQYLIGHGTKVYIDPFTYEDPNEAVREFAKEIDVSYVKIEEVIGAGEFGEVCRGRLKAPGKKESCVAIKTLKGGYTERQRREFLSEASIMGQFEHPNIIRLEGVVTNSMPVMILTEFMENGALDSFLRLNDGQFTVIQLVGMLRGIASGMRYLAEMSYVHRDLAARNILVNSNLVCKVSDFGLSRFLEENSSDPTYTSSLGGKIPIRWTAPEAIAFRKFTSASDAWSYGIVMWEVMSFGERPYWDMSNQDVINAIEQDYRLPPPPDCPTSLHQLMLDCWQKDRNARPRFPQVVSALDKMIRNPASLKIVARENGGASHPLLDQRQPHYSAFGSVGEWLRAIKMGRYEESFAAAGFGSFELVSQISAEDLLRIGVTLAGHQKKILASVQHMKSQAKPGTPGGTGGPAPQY
Procedure, shortened: as §1

JNK3(h) = target: T3, JNK3(h) (Homo sapiens, UniProt P53779)
T3 construct: purchased Millipore
Procedure, shortened: as §1

PAK5(h) = PAK5(h) (Homo sapiens, UniProt Q9P286)
Procedure, shortened: as §1

PDK1(h) = target: T4, PDK1(h) (Homo sapiens, UniProt O15530)
T4 sequence (O15530 1-556): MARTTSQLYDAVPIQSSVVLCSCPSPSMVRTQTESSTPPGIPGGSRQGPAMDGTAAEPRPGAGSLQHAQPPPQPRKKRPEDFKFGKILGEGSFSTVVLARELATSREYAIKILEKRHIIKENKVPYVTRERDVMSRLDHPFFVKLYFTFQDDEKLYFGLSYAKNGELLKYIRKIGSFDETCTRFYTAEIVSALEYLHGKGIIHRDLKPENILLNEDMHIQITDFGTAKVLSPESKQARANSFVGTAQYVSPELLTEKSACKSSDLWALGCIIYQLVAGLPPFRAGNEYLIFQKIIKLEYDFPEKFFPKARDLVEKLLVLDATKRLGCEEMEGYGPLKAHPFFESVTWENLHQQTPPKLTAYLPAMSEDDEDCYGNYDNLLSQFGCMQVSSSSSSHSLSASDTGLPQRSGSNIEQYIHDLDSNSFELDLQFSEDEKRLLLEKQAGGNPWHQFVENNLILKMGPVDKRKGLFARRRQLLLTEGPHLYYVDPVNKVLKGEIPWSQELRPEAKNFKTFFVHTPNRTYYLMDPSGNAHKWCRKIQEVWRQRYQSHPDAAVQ
Procedure, shortened: as §1

Rsk2(h) = Rsk2(h) (Homo sapiens, UniProt P51812)
Procedure, shortened: as §1

SAPK2a(h) = target: T5, SAPK2a(h) (Homo sapiens, UniProt Q16539)
T5 construct: purchased Millipore
Procedure, shortened: as §1

T3 sequence (P53779 whole entry): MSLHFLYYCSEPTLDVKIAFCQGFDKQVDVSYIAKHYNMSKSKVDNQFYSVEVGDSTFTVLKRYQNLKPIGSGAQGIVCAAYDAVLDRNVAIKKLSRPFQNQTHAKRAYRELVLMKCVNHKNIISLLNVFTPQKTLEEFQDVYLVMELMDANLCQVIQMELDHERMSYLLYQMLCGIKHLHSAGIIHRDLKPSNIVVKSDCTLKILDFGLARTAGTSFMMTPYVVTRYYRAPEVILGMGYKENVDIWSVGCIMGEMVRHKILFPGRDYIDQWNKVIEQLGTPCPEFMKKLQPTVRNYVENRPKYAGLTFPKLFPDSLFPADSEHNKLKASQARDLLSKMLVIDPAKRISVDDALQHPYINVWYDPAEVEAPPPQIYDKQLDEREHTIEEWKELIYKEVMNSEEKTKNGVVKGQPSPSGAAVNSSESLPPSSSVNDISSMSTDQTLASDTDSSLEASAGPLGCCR
T5 sequence (Q16539 whole entry): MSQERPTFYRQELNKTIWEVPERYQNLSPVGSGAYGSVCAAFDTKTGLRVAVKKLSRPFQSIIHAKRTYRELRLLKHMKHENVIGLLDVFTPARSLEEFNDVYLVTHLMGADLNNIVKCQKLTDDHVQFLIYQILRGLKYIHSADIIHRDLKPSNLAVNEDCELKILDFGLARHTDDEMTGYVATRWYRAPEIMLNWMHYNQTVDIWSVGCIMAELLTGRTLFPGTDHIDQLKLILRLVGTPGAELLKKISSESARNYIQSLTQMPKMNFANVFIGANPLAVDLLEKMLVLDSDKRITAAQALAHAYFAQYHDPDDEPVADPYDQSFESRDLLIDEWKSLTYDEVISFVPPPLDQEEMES
Sequence of PAK5(h) (Q9P286 whole entry): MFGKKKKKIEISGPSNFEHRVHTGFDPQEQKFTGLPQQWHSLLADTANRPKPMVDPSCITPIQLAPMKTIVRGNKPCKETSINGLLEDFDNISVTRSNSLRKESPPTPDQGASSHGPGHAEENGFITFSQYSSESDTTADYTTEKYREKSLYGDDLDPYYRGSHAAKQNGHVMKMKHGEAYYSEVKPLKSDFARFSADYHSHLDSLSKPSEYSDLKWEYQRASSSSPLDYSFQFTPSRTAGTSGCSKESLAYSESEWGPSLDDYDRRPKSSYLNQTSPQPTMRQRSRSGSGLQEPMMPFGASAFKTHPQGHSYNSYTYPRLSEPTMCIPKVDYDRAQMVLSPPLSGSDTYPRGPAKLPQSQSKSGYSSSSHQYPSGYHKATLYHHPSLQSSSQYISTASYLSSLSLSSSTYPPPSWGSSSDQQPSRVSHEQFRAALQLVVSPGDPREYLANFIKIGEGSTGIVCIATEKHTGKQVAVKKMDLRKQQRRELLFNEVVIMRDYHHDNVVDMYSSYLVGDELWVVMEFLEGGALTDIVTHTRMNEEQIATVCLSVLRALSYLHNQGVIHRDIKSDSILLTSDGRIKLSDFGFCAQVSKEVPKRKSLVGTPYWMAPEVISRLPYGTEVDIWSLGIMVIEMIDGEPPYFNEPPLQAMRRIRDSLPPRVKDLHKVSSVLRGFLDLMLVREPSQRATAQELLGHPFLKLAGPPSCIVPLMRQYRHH
Sequence of DAPK2(h) (Q9UIK4 whole entry): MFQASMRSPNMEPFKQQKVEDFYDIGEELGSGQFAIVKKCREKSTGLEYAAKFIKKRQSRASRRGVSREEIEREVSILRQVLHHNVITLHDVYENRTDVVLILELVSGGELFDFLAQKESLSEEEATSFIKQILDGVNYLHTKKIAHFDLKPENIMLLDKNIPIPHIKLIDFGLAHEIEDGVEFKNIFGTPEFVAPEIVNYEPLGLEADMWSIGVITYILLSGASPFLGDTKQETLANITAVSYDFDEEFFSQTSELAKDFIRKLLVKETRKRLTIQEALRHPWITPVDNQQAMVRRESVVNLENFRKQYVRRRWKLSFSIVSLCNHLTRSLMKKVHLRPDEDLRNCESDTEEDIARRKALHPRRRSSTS
Sequence of Rsk2(h) (P51812 whole entry): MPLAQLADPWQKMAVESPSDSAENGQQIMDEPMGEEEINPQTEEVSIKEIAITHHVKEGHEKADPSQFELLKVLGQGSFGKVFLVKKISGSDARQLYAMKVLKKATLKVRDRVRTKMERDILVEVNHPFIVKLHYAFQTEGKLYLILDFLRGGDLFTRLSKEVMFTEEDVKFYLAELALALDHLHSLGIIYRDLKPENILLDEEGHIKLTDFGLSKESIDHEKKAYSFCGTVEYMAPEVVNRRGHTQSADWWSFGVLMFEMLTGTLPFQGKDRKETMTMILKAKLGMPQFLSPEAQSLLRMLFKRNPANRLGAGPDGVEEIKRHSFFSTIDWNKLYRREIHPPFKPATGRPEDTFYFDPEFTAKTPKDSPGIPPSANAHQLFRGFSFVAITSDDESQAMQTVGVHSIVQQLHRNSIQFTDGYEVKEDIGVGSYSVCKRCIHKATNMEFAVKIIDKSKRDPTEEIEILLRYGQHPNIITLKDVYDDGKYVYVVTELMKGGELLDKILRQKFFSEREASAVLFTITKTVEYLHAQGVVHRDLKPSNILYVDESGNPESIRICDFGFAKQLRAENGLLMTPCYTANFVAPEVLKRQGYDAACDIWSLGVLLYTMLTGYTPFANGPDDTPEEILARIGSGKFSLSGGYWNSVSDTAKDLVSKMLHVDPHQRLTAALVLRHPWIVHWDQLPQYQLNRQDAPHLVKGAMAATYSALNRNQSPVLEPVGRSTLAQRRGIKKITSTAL

Row | Sequence | % activity (DAPK2(h)) [%] | % activity (DMPK(h)) [%] | % activity (EphB4(h)) [%] | % activity (JNK3(h)) [%] | % activity (PAK5(h)) [%] | % activity (PDK1(h)) [%] | % activity (Rsk2(h)) [%] | % activity (SAPK2a(h)) [%]
1 | FAKLAARLYRKALARQLGVAA [MMI-0300] | 32 | 59 | 44 | 89 | 110 | 135 | 51 | 90
2 | HRRIKAWLKKIKALARQLGVAA (Mammal) [MMI-0500] | 3 | 12 | 38 | 171 | 125 | 178 | 14 | 52
3 | KAFAKLAARLYRKALARQLGVAA [MMI-0400] | 16 | 54 | 28 | 70 | – | 159 | 38 | 85
4 | YARAAARQARAKALARQLGVAA [MMI-0100] | – | – | 62 | – | – | – | – | –
5 | YARAAARQARAKALNRQLGVA (Mammal) [MMI-0200] | 92 | 66 | 131 | 90 | 100 | 143 | 101 | –

From US20150258192A1, “COMPOSITIONS AND METHODS FOR PREVENTING OR TREATING CHRONIC LUNG ALLOGRAFT DYSFUNCTION (CLAD) AND IDIOPATHIC PULMONARY FIBROSIS (IPF)” (priority 2014, published 2015)
